Source: patent publication US20260274985A1 (MYTHIC THERAPEUTICS, published 2026)
Positions count from the first letter of the chain named.

T1: Human TROP2 Protein, His Tag (Acro Biosystems) (human, UniProt P09758 27-274)
T1 construct: Soluble analyte of the Octet assay; also called TACSTD2; not shown: His tag
T1 sequence (looked up): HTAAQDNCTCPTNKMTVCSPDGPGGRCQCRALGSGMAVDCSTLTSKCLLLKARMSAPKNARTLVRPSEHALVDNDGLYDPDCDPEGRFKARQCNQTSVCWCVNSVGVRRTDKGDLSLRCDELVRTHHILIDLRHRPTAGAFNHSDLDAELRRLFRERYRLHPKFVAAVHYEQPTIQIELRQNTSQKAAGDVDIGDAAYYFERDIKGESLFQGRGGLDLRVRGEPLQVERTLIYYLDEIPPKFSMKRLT

T2: Human TROP2 Protein, His Tag (human, UniProt P09758 27-274)
T2 construct: Bought protein; also called TACSTD2; not shown: His tag
T2 sequence (looked up): T1 sequence (looked up)

T3: Human TROP2 Protein, His Tag (Acro Biosystems) (human, UniProt P09758 27-274)
T3 construct: not shown: His tag
T3 sequence (looked up): T1 sequence (looked up)

B1: MYT13248 (antibody, V domains shown)
VH: QVQLQQSGSELKKPGASVKVSCKASGYTFTNHGMNWVKQAPGQGLKWMGWINTYTGEPTYTDDFKGRFAFSLDTSVSTAYLQISSLKADDTAVYFCARGGFGSSYWYFDVWGQGSLVTVSS
VL: DIQLTQSPSSLSASVGDRVSITCKASQDVSIAVAWYQQKPGKAPKLLIYSAHYRYTGVPDRFSGSGSGTDFTLTISSLQPEDFAVYYCQQHYHTPLTFGAGTKVEIK
notes: Sacituzumab HC-LC pairing variant; IgG
B2: MYT11677 (antibody, V domains shown)
VH: QVQLVQSGAEVKKPGASVKVSCKASGYTFTTAGMQWVRQAPGQGLEWMGWINTHSGVPKYAEDFKGRVTISADTSTSTAYLQLSSLKSEDTAVYYCARSGFGSSYWYFDVWGQGTLVTVSS
VL: B1 VL with L4M, S20T, K24H, I31T, H52S, D60S, H93I, A100Q, V104L
notes: IgG from supernatant; His at LCV position 24; also called datopotamab variant L1 01
B3: MYT11681 (antibody, V domains shown)
VH: B2 VH
VL: B1 VL with L4M, S20T, D28H, I31T, H52S, D60S, H93I, A100Q, V104L
notes: IgG from supernatant; His at LCV position 28; also called datopotamab variant L1 05
B4: MYT11685 (antibody, V domains shown)
VH: B2 VH
VL: B1 VL with L4M, S20T, I31T, A32H, H52S, D60S, H93I, A100Q, V104L
notes: IgG from supernatant; His at LCV position 32; also called datopotamab variant L1 09
B5: MYT11684 (antibody, V domains shown)
VH: B2 VH
VL: B1 VL with L4M, S20T, I31H, H52S, D60S, H93I, A100Q, V104L
notes: IgG from supernatant; His at LCV position 31; also called datopotamab variant L1 08
B6: MYT11683 (antibody, V domains shown)
VH: B2 VH
VL: B1 VL with L4M, S20T, S30H, I31T, H52S, D60S, H93I, A100Q, V104L
notes: IgG from supernatant; His at LCV position 30; also called datopotamab variant L1 07
B7: MYT11693 (antibody, V domains shown)
VH: B2 VH
VL: B1 VL with L4M, S20T, I31T, H52S, Y55H, D60S, H93I, A100Q, V104L
notes: IgG from supernatant; His at LCV position 55; also called datopotamab variant L2 06
B8: MYT11689 (antibody, V domains shown)
VH: B2 VH
VL: B1 VL with L4M, S20T, I31T, A51H, H52S, D60S, H93I, A100Q, V104L
notes: IgG from supernatant; His at LCV position 51; also called datopotamab variant L2 02
B9: MYT11692 (antibody, V domains shown)
VH: B2 VH
VL: B1 VL with L4M, S20T, I31T, H52S, R54H, D60S, H93I, A100Q, V104L
notes: IgG from supernatant; His at LCV position 54; also called datopotamab variant L2 05
B10: MYT11686 (antibody, V domains shown)
VH: B2 VH
VL: B1 VL with L4M, S20T, I31T, V33H, H52S, D60S, H93I, A100Q, V104L
notes: IgG from supernatant; His at LCV position 33; also called datopotamab variant L1 10
B11: MYT12367 (antibody, V domains shown)
VH: B1 VH with H32Y
VL: B1 VL with H52S, Y92H
notes: sacituzumab VL 92, 93 -> H
B12: MYT12319 (antibody, V domains shown)
VH: B1 VH with H32Y, F64H, K65H
VL: B1 VL with H52S, H93I
notes: sacituzumab VH 64, 65 -> H
B13: MYT12342 (antibody, V domains shown)
VH: B1 VH with H32Y
VL: B1 VL with V33H, H52S, Y53H, H93I
notes: sacituzumab VL 33, 53 -> H
B14: MYT12358 (antibody, V domains shown)
VH: B1 VH with H32Y
VL: B1 VL with H52S, Y53H, Q89H, H93I
notes: sacituzumab VL 53, 89 -> H
B15: MYT12348 (antibody, V domains shown)
VH: B1 VH with H32Y
VL: B1 VL with A51H, H52S, Y53H, H93I
notes: sacituzumab VL 51, 53 -> H
B16: MYT12370 (antibody, V domains shown)
VH: B1 VH with H32Y
VL: B1 VL with S30H, A51H, H52S
notes: sacituzumab VL 30, 51, 93 -> H
B17: MYT12347 (antibody, V domains shown)
VH: B1 VH with H32Y
VL: B1 VL with A51H, H93I
notes: sacituzumab VL 51, 52 -> H
B18: MYT12346 (antibody, V domains shown)
VH: B1 VH with H32Y
VL: B1 VL with V33H, H52S
notes: sacituzumab VL 33, 93 -> H
B19: MYT12368 (antibody, V domains shown)
VH: B1 VH with H32Y
VL: B1 VL with S30H, A51H, H52S, Y53H, H93I
notes: sacituzumab VL 30, 51, 53 -> H
B20: MYT12295 (antibody, V domains shown)
VH: B1 VH with Y60H
VL: B1 VL with H52S, H93I
notes: sacituzumab VH 32, 60 -> H
B21: MYT12302 (antibody, V domains shown)
VH: B1 VH with H32Y, G33H, D62H
VL: B1 VL with H52S, H93I
notes: sacituzumab VH 33, 62 -> H
B22: MYT12298 (antibody, V domains shown)
VH: B1 VH with F64H
VL: B1 VL with H52S, H93I
notes: sacituzumab VH 32, 64 -> H
B23: MYT12306 (antibody, V domains shown)
VH: B1 VH with H32Y, G33H, G66H
VL: B1 VL with H52S, H93I
notes: sacituzumab VH 33, 66 -> H
B24: MYT12320 (antibody, V domains shown)
VH: B1 VH with H32Y, F64H, G66H
VL: B1 VL with H52S, H93I
notes: sacituzumab VH 64, 66 -> H
B25: MYT12369 (antibody, V domains shown)
VH: B1 VH with H32Y
VL: B1 VL with S30H, A51H, H52S, Q89H, H93I
notes: sacituzumab VL 30, 51, 89 -> H
B26: MYT12318 (antibody, V domains shown)
VH: B1 VH with H32Y, D63H, G66H
VL: B1 VL with H52S, H93I
notes: sacituzumab VH 63, 66 -> H
B27: MYT12297 (antibody, V domains shown)
VH: B1 VH with D63H
VL: B1 VL with H52S, H93I
notes: sacituzumab VH 32, 63 -> H
B28: MYT12354 (antibody, V domains shown)
VH: B1 VH with H32Y
VL: B1 VL with Q89H, H93I
notes: sacituzumab VL 52, 89 -> H
B29: MYT12373 (antibody, V domains shown)
VH: B1 VH with H32Y
VL: B1 VL with S30H, H52S, Q89H
notes: sacituzumab VL 30, 89, 93 -> H
B30: MYT12349 (antibody, V domains shown)
VH: B1 VH with H32Y
VL: B1 VL with A51H, H52S, Q89H, H93I
notes: sacituzumab VL 51, 89 -> H
B31: MYT12343 (antibody, V domains shown)
VH: B1 VH with H32Y
VL: B1 VL with V33H, H52S, Q89H, H93I
notes: sacituzumab VL 33, 89 -> H
B32: MYT12310 (antibody, V domains shown)
VH: B1 VH with H32Y, Y60H, K65H
VL: B1 VL with H52S, H93I
notes: sacituzumab VH 60, 65 -> H

biological target: T1, Human TROP2 Protein, His Tag (Acro …); assay: BLI (Octet) [1/2]

| binding result | Binder |
| --- | --- |
| binds | B1 |

biological target: T2, Human TROP2 Protein, His Tag; assay: BLI (Octet) [2/2]
Description: After allowing for four days of protein expression, cell culture supernatants were collected, quantified by SDS-PAGE analysis (DNS), and the pH dependence of the variant was evaluated using biolayer interferometry (BLI) on an Octet RED 96e instrument. Briefly, cell culture supernatants were diluted based on qualitative expression level of the variant determined by visual examination of SDS-PAGE gels, 5 μL of cell culture supernatant was diluted into 195 μL of 1×PBST, pH 7.4 for high expressors, 25 μL of cell culture supernatant was diluted into 175 μL of 1×PBST, pH 7.4 for medium expressors and 100 μL of cell culture supernatant was diluted into 100 μL of 1×PBST, pH 7.4 for low expressors for loading onto the sensor tips. The resulting diluted supernatants were then captured on an anti-human Fc sensor (Forte Bio). A baseline was established using 1×PBST (50 mM Potassium Phosphate Buffer+150 mM NaCl+0.05% Tween 20) pH 7.4, and the sensor was associated with 50 nM of TROP2 (Human TROP2 Protein, His Tag, Acro Biosystems) in 1×PBST pH 7.4 for 120 sec to generate an association curve. In the dissociation phase, the antibody-antigen complex on the sensor was exposed to 1×PBST pH 7.4 or pH 5.4, for 300 sec. Association and dissociation phase curves were examined for the starting ABPC antibody (with no substitutions) and each corresponding antibody variant at pH 5.4 and pH 7.4 to inform on two criteria: a) enhanced dissociation (i.e., higher koff values) at pH 5.4 due to histidine or alanine substitution compared to the starting ABPC, (with no substitutions), and b) reduced dissociation at pH 7.4 (i.e., lower koff values) compared to pH 5.4 in the antibody variant itself and with the starting ABPC (with no substitutions). […] It was also noted that while some mutations obliterated TROP2 binding, others were tolerated with little or n change in TROP2 binding kinetics.

| binding result | Binder |
| --- | --- |
| binds | B2 |
| binds | B3 |
| no binding (tested: 50 nM) | B4 |
| binds | B5 |
| binds | B6 |
| binds | B7 |
| binds | B8 |
| binds | B9 |
| binds | B10 |

biological target: T3, Human TROP2 Protein, His Tag (Acro …); assay: BLI (Octet)

| binding result | Binder |
| --- | --- |
| binds | B11 |
| binds | B12 |
| binds | B13 |
| binds | B14 |
| binds | B15 |
| binds | B16 |
| binds | B17 |
| binds | B18 |
| binds | B19 |
| binds | B20 |
| binds | B21 |
| binds | B22 |
| binds | B23 |
| binds | B24 |
| binds | B25 |
| binds | B26 |
| binds | B27 |
| binds | B28 |
| binds | B29 |
| binds | B30 |
| binds | B31 |
| binds | B32 |
